What was measured:
Test in all cases: EMSA
[1] = target: T1, DmTHAP (P element transposase THAP domain) (Drosophila melanogaster, UniProt Q7M3K2 1-77)
T1 sequence: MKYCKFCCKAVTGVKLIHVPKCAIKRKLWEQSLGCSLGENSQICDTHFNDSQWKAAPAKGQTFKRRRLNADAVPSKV

[2] = target: T2, DmTHAP H18A Q42A (Drosophila melanogaster, UniProt Q7M3K2 1-77, H18A;Q42A)
T2 sequence: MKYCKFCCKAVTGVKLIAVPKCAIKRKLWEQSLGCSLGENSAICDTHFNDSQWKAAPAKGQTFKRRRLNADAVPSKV

[3] = target: T3, DmTHAP Q42A (Drosophila melanogaster, UniProt Q7M3K2 1-77, Q42A)
T3 sequence: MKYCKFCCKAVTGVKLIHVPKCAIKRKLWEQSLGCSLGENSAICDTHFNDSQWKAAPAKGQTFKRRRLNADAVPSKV

[4] = target: T4, DmTHAP dY2,K3 (Drosophila melanogaster, UniProt Q7M3K2 1-77, del2-3)
T4 sequence: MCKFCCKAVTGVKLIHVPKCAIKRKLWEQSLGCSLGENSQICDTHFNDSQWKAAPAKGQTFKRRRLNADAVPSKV

[5] = target: T5, DmTHAP H18A (Drosophila melanogaster, UniProt Q7M3K2 1-77, H18A)
T5 sequence: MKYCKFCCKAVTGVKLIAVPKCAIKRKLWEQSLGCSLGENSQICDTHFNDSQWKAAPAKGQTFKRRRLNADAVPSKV

[6] = target: T6, DmTHAP R65A R67A (Drosophila melanogaster, UniProt Q7M3K2 1-77, R65A;R67A)
T6 sequence: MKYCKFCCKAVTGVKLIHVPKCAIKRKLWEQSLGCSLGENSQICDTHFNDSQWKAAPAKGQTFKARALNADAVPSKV

[7] = target: T7, DmTHAP R67A (Drosophila melanogaster, UniProt Q7M3K2 1-77, R67A)
T7 sequence: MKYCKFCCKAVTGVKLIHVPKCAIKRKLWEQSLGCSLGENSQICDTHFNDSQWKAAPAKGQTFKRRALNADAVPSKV

[8] = target: T8, DmTHAP R65A (Drosophila melanogaster, UniProt Q7M3K2 1-77, R65A)
T8 sequence: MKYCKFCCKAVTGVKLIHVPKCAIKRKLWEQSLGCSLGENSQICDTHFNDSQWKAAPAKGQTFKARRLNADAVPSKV

[9] = target: T9, DmTHAP R66A (Drosophila melanogaster, UniProt Q7M3K2 1-77, R66A)
T9 sequence: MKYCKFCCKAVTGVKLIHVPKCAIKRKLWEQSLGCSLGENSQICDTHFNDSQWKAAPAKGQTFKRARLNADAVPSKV

B1: 15mer duplex with transposase site (dsDNA)
DNA 1: GAGGTTAAGTGGATGT
DNA 2: TACATCCACTTAAC
Question: With B1 as the binder, how does the binding signal [1] read?
Answer: Its binding signal is 1 fold reduction in affinity vs WT (reference).

Question: And the binding signal [2]?
Answer: The binding signal was ~20 fold reduction in affinity vs WT.

Question: What about the binding signal [3] of the same binder?
Answer: The binding signal was ~15 fold reduction in affinity vs WT.

Question: And the binding signal [4]?
Answer: The binding signal was ~3 fold reduction in affinity vs WT.

Question: And the binding signal [5]?
Answer: The binding signal was ~12 fold reduction in affinity vs WT.

Question: And the binding signal [6]?
Answer: The binding signal was ~42 fold reduction in affinity vs WT.

Question: What about the binding signal [7] of the same binder?
Answer: The binding signal was ~17 fold reduction in affinity vs WT.

Question: What about the binding signal [8] of the same binder?
Answer: Its binding signal is ~21 fold reduction in affinity vs WT.

Question: Does B1 bind [9]?
Answer: Result: no binding
